Data from patent publication US7799901B2, “Modulators of the function of FAS receptors and other proteins” (Yeda Research and Development Co. Ltd., priority 1995, dated 2010).

T1: GST-Fas-IC fusion protein with a replacement at the lpr^eg mutation site (I225A) (Mus musculus, UniProt P25446, I246A)
T1 construct: GST fusion with Fas-IC containing a Ile to Ala replacement mutation at position 225; made in house; host or cells: E. coli
T1 sequence (P25446 187-327 I246A): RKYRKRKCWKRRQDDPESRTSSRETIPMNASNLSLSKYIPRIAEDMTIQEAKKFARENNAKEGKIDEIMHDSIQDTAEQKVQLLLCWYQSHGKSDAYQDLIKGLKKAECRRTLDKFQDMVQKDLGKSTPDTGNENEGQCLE

T2: FAS-R (Homo sapiens, UniProt P25445)
T2 construct: the FAS-IC extends-from amino acid residues 175-319 of the intact FAS-R; expressed in transfected cells; host or cells: SFY526 yeast
T2 sequence (P25445 191-335): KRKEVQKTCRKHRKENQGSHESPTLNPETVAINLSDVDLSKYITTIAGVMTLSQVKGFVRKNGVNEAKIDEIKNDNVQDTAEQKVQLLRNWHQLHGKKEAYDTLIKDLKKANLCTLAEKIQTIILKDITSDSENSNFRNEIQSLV


Assays:
[1] = target: T1, GST-Fas-IC fusion protein with a replacement at the lpr^eg mutation site (I225A); assay: In vitro binding to GST-Fas-IC with I225A replacement; details: [35S]-labeled protein from HeLa extracts; SDS-PAGE, autoradiography
Experimental: Glutathione S-transferase (GST) fusions with the wild type or a mutated Fas-IC were produced and adsorbed to glutathione-agarose beads; see Boldin et al, 1995; Ausubel et al, 1994; Frangioni and Neel, 1993). Binding of metabolically-labeled FLAG-MORT-1 fusion protein to GST-Fas-IC was assessed by incubating the beads for 2 h at 4° C. with extracts of HeLa cells, metabolically labeled with [^35S]methionine (60 μCi/ml), that express FLAG-MORT-1. The extracts were prepared in a buffer containing 50 mM Tris-HCl, pH 7.5, 150 mM NaCl, 0.1% NP-40; 1 mM dithioteitol, 1 mM EDTA, 1 mM phenylmethylsulfonyl fluoride, 20 μg/ml Aprotonin, […] Leupeptin, 10 mM-sodium fluoride and 0.1 mM sodium vanadate (1 ml per 5×10^5 cells).
Expression of MORT-1 molecules fused at their N terminus with the. FLAG octapeptide (FLAG-MORT-1) yielded in HeLa cells proteins of four distinct sizes—about […], 28, 32, and 34 kD. […] Thus, the in vitro interaction was evaluated by assessing, by autoradiography following SDS-PAGE, the binding of [35] metabolically labeled MORT-1, produced in transfected HeLa cells as a fusion with the FLAG octapeptide (FLAG-MORT-1), to GST, GST fusion with the human or mouse Fas-IC (GST-huFas-IC, GST-mFas-IC) or to GST fusion with Fas-IC containing a Ile to Ala replacement mutation at position 225.

FAS-R = target: T2, FAS-R; assay: Two-hybrid β-galactosidase filter assay (FIG. 5), binding to FAS-R; details: two hybrid test
Experimental: The yeast two-hybrid test was further applied to evaluate the specificity of binding of MACH to MORT-1, in particular, to define the region in MORT-1 to which MACH binds, as well as to determine which of the MACH ORFs interacts with MORT-1, the procedures being as set forth herein above in Examples 1 and 2. Briefly, various MORT-1 and MACH constructs were prepared for testing the interaction of the proteins encoded by the Gal4 DNA-binding domain and activation domain constructs within transfected SFY526 yeast cells as assessed by the β-galactosidase expression filter assay. The DNA-binding domain constructs were prepared in pGBT9 vectors and the activation domain constructs were prepared in pGAD-GM vectors. […] In the assay, the development of color was determined, where the greater the color development, the greater the interaction between the constructs encoded by the DNA-binding domain and activation domain; Color development was depicted by symbols, where “+++” and “+” indicate the development of a strong color within 30 and 90 min. of the assay, respectively, and “−−−” indicates the lack of development of color within 24 hrs. of the assay. […]
In FIG. 5, there is shown the results of the interaction of MORT-1 and MACH within transfected yeast cells. […] Their interaction was assessed by a β-galactosidase expression filter assay as described in Boldin et al (1995b). […]

Row | Molecule | in vitro binding to GST-Fas-IC (I225A) [1] | binding to FAS-R in transfected yeast (FAS-R)
1 | MORT-1: Mediator of Receptor-induced Toxicity; protein binding the intracellular domain of FAS-R, SEQ ID NO:2 (protein) VNQAPECRFGGGILGPLGKRRDLARASEPRTEGARRAGPQPRPLADPAMDPFLVLLHSVSSSLSSSELTELKFLCLGRVVKRKLERVQSGLDLFSMLLEQNDLEPGHTELLRELLASLRRHDLLRRVDDFEAGAAAGAAPGEEDLCAAFNVICDNVGKDWRRLARQLKVSDTKIDSIEDRYPRNLTERVRESLRIWKNTEKENATVAHLVGALRSCQMNLVADLVQEVQQARDLQNRSGAMSPMSWNSDASTSEAS | did not bind | –
2 | MACHβ1: MACH isoform, cDNA SEQ ID NO: 4, amino acid SEQ ID NO: 5; lacks the CED3/ICE homology region (protein) MDFSRNLYDIGEQLDSEDLASLKFLSLDYIPQRKQEPIKDALMLFQRLQEKRMLEESNLSFLKELLFRINRLDLLITYLNTRKEEMERELQTPGRAQISAYRVMLYQISEEVSRSELRSFKFLLQEEISKCKLDDDMNLLDIFIEMEKRVILGEGKLDILKRVCAQINKSLLKIINDYEEFSKERSSSLEGSPDEFSNDFGQSLPNEKQTSGILSDHQQSQFCKSTGESAQTSQH | – | unable to bind
